From PMC5059666 (2016)
Values belong to the molecule of their own block, whether it stands above or below them.

Key:
[1] = target: feline IgM-Fc pentamer (FLAG-tagged feline IgM-Fc with Myc-tagged feline IgJ) (cat); assay: SPR; Biacore T100, 25 °C; IgM-Fc pentamers amine-coupled on a CM5 chip (1000 RU), BSA reference cell; AIM as analyte 50 nM to 5 μM in D-PBS(-) pH 7.4, single-cycle kinetics, heterogeneous ligand model
[2] = target: feline IgM-Fc pentamer (FLAG-tagged feline IgM-Fc with Myc-tagged feline IgJ); assay: immunoblotting (non-reducing conditions) of IgM-Fc bound AIM, quantified using NIH ImageJ; settings: supernatant after a co-culture of feline Fc-expressing HEK293T cells and cells expressing wild-type, chimeric, or mutant feline AIM; parent: est. 1; read off a plot
[3] = target: T1, mouse IgM-Fc pentamer (FLAG-IgM-Fc with IgJ-Myc) (mouse, UniProt P01872 1-454; P01592 22-159); assay: SPR
T1 chain 1: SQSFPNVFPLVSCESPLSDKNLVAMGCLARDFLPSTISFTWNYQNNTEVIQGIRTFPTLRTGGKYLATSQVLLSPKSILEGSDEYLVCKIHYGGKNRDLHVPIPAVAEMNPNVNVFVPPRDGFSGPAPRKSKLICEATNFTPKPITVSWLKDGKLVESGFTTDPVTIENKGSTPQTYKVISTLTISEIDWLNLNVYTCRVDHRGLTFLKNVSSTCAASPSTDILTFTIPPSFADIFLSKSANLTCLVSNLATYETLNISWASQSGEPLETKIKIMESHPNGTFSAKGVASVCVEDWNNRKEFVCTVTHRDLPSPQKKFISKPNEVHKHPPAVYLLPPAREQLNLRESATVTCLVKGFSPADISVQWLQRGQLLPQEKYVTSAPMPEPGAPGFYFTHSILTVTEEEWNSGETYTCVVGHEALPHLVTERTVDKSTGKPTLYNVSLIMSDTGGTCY
T1 chain 2: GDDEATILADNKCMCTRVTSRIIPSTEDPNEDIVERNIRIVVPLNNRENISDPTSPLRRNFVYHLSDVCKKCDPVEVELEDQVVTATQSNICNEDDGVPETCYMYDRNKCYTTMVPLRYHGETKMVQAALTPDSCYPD

[4] = target: T1, mouse IgM-Fc pentamer (FLAG-IgM-Fc with …); assay: SPR
[5] = target: mouse IgM-Fc pentamer (FLAG-IgM-Fc with IgJ-Myc) (mouse) (UniProt P01872); assay: SPR; Biacore T100, 25 °C; IgM-Fc pentamers amine-coupled on a CM5 chip (1000 RU), BSA reference cell; AIM as analyte 50 nM to 5 μM in D-PBS(-) pH 7.4, single-cycle kinetics, heterogeneous ligand model

Molecule: recombinant feline AIM (4-SRCR) (from UniProt A0A1E1GEY0 20-355) (natural protein)
koff [1]: 4.38e-05 s⁻¹ | kon [1]: 9.52 M⁻¹ s⁻¹

B1: recombinant feline AIM (3-SRCR) (natural protein)
chain: SFSRVRLVGGDHRCEGRVELQQDDEWVTVCDDYWNMDSVAVLCRELGCGAARKTMSGTVYGPVTPKDQKVFIHLFRCNGIEESLSQCEREDAIGCSHVEDAGAVCEPIYTGPGILGPESVRLADGPGRCQGRVEVKFRGEWSSVCQAGWSFAAAKVVCRQLGCGRATLTRRGCNKATQGQGAIWQRKASCSGQEVSLQDCLSEVWEHNCTHNEDVWVECEDPFALKLVGGRSHCEGRLEVLHKGEWGSVCDDGWGQDADRVVCRQLGCGQPLSPPVKVRRRFGPGVGRIWLDDVKCSGKEPSLEQCLHRSWGYHNCNHREDVAVVCEEQQSGLPDA
koff [3]: 0.000106 s⁻¹ | Kd [4]: 14.6 nM | Kd [1]: 5.97 nM | koff [1]: 5.65e-05 s⁻¹ | kon [1]: 9460 M⁻¹ s⁻¹

Further lines, results first:

ratio to parent [2]: 0.58
Molecule: recombinant feline AIM (3-SRCR) (from UniProt A0A1E1GEY0) R299K; R300I; R338K

Kd [5]: 5820 nM | koff [5]: 0.0223 s⁻¹ | kon [5]: 3830 M⁻¹ s⁻¹
B2: recombinant mouse AIM (natural protein)
chain: ESPTKVQLVGGAHRCEGRVEVEHNGQWGTVCDDGWDRRDVAVVCRELNCGAVIQTPRGASYQPPASEQRVLIQGVDCNGTEDTLAQCELNYDVFDCSHEEDAGAQCENPDSDLLFIPEDVRLVDGPGHCQGRVEVLHQSQWSTVCKAGWNLQVSKVVCRQLGCGRALLTYGSCNKNTQGKGPIWMGKMSCSGQEANLRSCLLSRLENNCTHGEDTWMECEDPFELKLVGGDTPCSGRLEVLHKGSWGSVCDDNWGEKEDQVVCKQLGCGKSLHPSPKTRKIYGPGAGRIWLDDVNCSGKEQSLEFCRHRLWGYHDCTHKEDVEVICTDFDV
